The values that follow come from patent US9713649 (CLEVELAND CLINIC FOUNDATION, dated 2017).

Primed or numbered codes have the meaning given here. Where no end group is shown, it is not given here. [ ]: non-standard residue; d: D form. The star is where a group is joined. MCC = 4-(N-maleimidomethyl)cyclohexane-1-carbonyl, from SMCC, O=C1C=CC(=O)N1C[C@H]1CC[C@H](C(=O)*)CC1; NOTA(2S-Bn(4-NHCS)) = O=C(O)CN1CCN(CC(=O)O)C[C@H](Cc2ccc(NC(=S)*)cc2)N(CC(=O)O)CC1; Amc = N-aminomethyl cyclohexanoic acid; ZJ = urea ligand Cys-C(O)-Glu; Ahx = NCCCCCC(=O)O; E′E = Glu-urea-Glu

The assay deals with T1, Prostate specific membrane antigen (PSMA) (UniProt Q04609 1-750, limits assumed).
T1 construct: whole, on cells
T1 sequence (Q04609 whole entry): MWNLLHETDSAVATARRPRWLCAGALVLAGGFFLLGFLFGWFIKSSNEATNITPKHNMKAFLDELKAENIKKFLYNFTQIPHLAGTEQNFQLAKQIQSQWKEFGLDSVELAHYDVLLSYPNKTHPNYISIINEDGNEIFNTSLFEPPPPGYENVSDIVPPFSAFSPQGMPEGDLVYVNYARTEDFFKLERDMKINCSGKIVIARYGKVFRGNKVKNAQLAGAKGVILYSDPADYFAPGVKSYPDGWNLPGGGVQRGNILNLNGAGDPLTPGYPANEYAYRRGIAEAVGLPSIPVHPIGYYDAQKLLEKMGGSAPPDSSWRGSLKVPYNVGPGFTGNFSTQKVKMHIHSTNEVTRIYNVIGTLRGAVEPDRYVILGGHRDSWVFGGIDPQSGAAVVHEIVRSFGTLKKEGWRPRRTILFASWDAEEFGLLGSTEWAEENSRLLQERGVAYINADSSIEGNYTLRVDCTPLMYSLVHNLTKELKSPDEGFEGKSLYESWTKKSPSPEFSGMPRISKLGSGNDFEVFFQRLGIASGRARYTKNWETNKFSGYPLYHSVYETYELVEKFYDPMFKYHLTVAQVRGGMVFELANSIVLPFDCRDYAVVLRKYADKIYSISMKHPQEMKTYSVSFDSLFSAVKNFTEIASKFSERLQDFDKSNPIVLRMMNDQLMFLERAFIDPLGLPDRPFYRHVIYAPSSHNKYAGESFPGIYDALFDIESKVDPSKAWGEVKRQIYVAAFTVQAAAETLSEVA
The assay can be described thus: competitive binding on LNCaP or PC3-PIP cells; displacement of 12 nM N-[N-[(S)-1,3-dicarboxypropyl]carbamoyl]-S-[3H]-methyl-L-cysteine, scintillation counting. Here is the method:
Briefly, LNCaP or PC3-PIP cells (5×10^5) were incubated with different concentrations of ligands in the presence of 12 nM N—[N—[(S)-1,3-dicarboxypropyl]carbamoyl]-S-[^3H]-methyl-L-cysteine in a total volume of 300 µL for 1 hour at 37° C. The mixture was centrifuged at 3,000 g for 5 min at 4° C., then washed three times with 500 µL of cold PBS. Finally, 4 mL of EcoLume™ cocktail (MP Biomedicals) was added, and radioactivity was counted by scintillation counter. The concentration required to inhibit 50% of binding was determined (IC$50$) by GraphPad Prism 3.0.
Binding affinities of new compounds to PSMA.

B1: ZJ-MCC-Ahx-YYYG (Compound 2) (peptide)
peptide: {ZJ-MCC}-[Ahx]YYYG
notes: Synthetic urea-ligand peptide conjugate, unlabelled
Take B1: the half-inhibitory concentration (IC50) (in general, the point on the concentration scale where inhibition reaches its midpoint) stood at 2.5 nM.

In turn, {E′E-Amc}-[Ahx][dE][dE][dE]GYGGGC-NH2 [E′EAmc-Ahx-dEdEdEGYGGGC-NH2 (Compound 3)] returned a half-maximal inhibitory concentration (IC50) of 7 nM.

B2: E′EAmc-Ahx-dEdEdEYK(Bn-NOTA)-NH2 (Compound 4) (peptide)
peptide: {E′E-Amc}-[Ahx][dE][dE][dE]YK(NOTA(2S-Bn(4-NHCS)))-NH2
notes: Tested unlabelled; also called E′EAmc-Ahx-dGlu-dGlu-dGlu-Tyr-Lys(Bn-NOTA)-NH2
Consider B2, for which the concentration for half-maximal inhibition (IC50) was 4.6 nM.

B3: E′E-Ahx-EEEYK(Bn-NOTA)-NH2 (Compound 5) (peptide)
peptide: {E′E}-[Ahx]EEEYK(NOTA(2S-Bn(4-NHCS)))-NH2
notes: Tested unlabelled; also called E′E-Ahx-Glu-Glu-Glu-Tyr-Lys(Bn-NOTA)-NH2
Turning to B3, the IC50 is 4.3 nM.
